Values quoted from earlier work, collected in patent US7718413B2, “Glycosylation variants of BACE” (Elan Pharmaceuticals, Inc., priority 2003, dated 2010).
Non-standard residues stand in square brackets, D forms with d. No end group written: not given here. Sta = CC(C)C[C@H](N)[C@@H](O)CC(=O)O

Target: β-secretase (Homo sapiens, UniProt P56817)
Conditions: previous studies

β-secretase, sequence (P56817 46-501): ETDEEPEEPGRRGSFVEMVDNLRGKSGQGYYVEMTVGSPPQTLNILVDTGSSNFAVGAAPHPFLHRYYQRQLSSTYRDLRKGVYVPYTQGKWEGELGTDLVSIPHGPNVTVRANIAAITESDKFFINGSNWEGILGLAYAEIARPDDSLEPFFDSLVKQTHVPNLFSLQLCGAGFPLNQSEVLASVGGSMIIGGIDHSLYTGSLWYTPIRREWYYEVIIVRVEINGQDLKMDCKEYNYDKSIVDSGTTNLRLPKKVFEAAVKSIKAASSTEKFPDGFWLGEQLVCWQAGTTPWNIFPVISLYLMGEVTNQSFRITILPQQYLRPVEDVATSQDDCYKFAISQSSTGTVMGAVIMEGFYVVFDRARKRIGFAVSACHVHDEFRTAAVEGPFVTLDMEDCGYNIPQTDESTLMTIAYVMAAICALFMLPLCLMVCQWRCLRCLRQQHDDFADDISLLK

Substance: KTEEISEVN[sta]VAEF (KTEEISEVN[Sta]VAEF) [P10-P4′staD→V]
- inhibitor of the enzyme (potency in words): reasonably potent inhibitor
